The supplement of paper PMC10567573

B1: MYL5 (parent)
chain: DVAGNLDYKALSYVITHGEEKEE
B2: NR2F2 (parent)
chain: NIPFFPDLQITDQVALLRLTWSEL

Variants of: B1
Experiment: protein stability index of a GFP-peptide fusion (GPS, HEK-293T) (PSI 1-6); higher = more stable
Conditions: c terminus: native
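Further: lentivirally expressed fusions sorted by FACS into six bins by GFP to DsRed ratio, PSI derived from sequencing read proportions per bin multiplied by bin number.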

Row | Variant | protein stability index
1 | A3V | 1.97
2 | A3I | 1.71
3 | A3D | 1.87
4 | A3W | 3.06
5 | A3E | 2.1
6 | A3Y | 2.15
7 | A3L | 2.31
8 | A3H | 1.8
9 | A3T | 2.21
10 | A3C | 1.29
11 | A3K | 2.15
12 | A3Q | 1.75
13 | A3P | 1.83
14 | A3N | 1.54
15 | D1F | 2.11
16 | D1R | 2.74
17 | D1M | 1.65
18 | D1K | 2.34
19 | D1V | 1.66
20 | D1P | 1.66

Row | Variant | protein stability index
21 | D1C | 2.21
22 | D1N | 2.24
23 | D1I | 1.97
24 | D1Q | 2.1
25 | D1A | 2.07
26 | D1S | 2.46
27 | D1H | 3.37
28 | D1T | 2.13
29 | V2M | 1.87
30 | V2T | 2
31 | V2L | 1.78
32 | V2D | 2.19
33 | V2A | 1.64
34 | V2E | 1.35
35 | V2G | 2.06
36 | V2I | 2.61
37 | V2K | 1.82
38 | V2W | 4.54
39 | V2Y | 4.5
40 | V2N | 1.75

Row | Variant | protein stability index
41 | V2P | 1.67
42 | V2C | 2.31
43 | V2S | 1.82
44 | V2R | 2.3
45 | V2F | 1.19
46 | V2H | 1.92
47 | G4M | 1.59
48 | G4N | 1.51
49 | G4E | 2.63
50 | G4H | 2.09
51 | G4A | 2.02
52 | G4D | 1.82
53 | G4Q | 1.8
54 | G4L | 2.03
55 | G4C | 2.45
56 | G4I | 1.46
57 | G4P | 1.61
58 | G4F | 1.77

Variants of: B2
Experiment: as above
Conditions: c terminus: a fixed tail appended

Row | Variant | protein stability index
59 | D12L | 2.12
60 | D12I | 3.82
61 | D12K | 3.13
62 | D12W | 3.74
63 | D12C | 2.46
64 | D12T | 2.86
65 | D12F | 2.42
66 | D12N | 2.42
67 | D12M | 2.37
68 | D12A | 3.01
69 | D12G | 2.42
70 | D12Y | 4.16
71 | D12R | 1.66
72 | D12E | 3.52
73 | D12S | 3.57
74 | D12P | 4.7
75 | D12H | 3.3
76 | D12V | 4.16
77 | A15T | 2.41
78 | A15G | 1.19
79 | A15H | 1.57
80 | A15M | 2.71
81 | A15P | 1.69
82 | A15C | 2.07
83 | A15D | 1.92
84 | A15E | 1.55

Row | Variant | protein stability index
85 | A15R | 2.08
86 | A15Q | 1.9
87 | A15W | 2.03
88 | A15S | 2
89 | A15L | 2.58
90 | A15K | 1.99
91 | A15N | 2.38
92 | A15F | 3.86
93 | A15I | 3.62
94 | A15Y | 1.67
95 | A15V | 2.22
96 | E23Q | 2.12
97 | E23G | 2.17
98 | E23I | 2.96
99 | E23M | 3.42
100 | E23T | 3.56
101 | E23R | 2.02
102 | E23N | 3.71
103 | E23A | 2.71
104 | E23F | 3.75
105 | E23P | 2.24
106 | E23S | 2.97
107 | E23V | 1.76
108 | E23Y | 2.74
109 | E23C | 3.21
110 | E23H | 3.17

Row | Variant | protein stability index
111 | E23L | 2.57
112 | E23D | 3.12
113 | E23W | 3.24
114 | E23K | 1.55
115 | L17P | 2.37
116 | L17Y | 2.15
117 | L17H | 1.54
118 | L17N | 2.59
119 | L17Q | 1.99
120 | L17V | 3.46
121 | L17F | 1.46
122 | L17K | 2.43
123 | L17W | 1.92
124 | L17E | 2.26
125 | L17T | 3.49
126 | L17I | 3.52
127 | L17G | 1.92
128 | L17R | 1.98
129 | L17D | 2.08
130 | L17A | 1.49
131 | L17S | 1.79
132 | L17M | 2.16
133 | L17C | 1.79
134 | L16T | 3.48
135 | L16H | 1.67
136 | L16I | 2.59

Row | Variant | protein stability index
137 | L16E | 1.63
138 | L16M | 3.26
139 | L16R | 1.84
140 | L16W | 1.65
141 | L16N | 2.03
142 | L16A | 2.41
143 | L16D | 2.02
144 | L16S | 2.1
145 | L16P | 1.86
146 | L16V | 2.34
147 | L16Q | 2.33
148 | L16G | 2.02
149 | L16K | 1.61
150 | L16C | 2.65
151 | L16F | 2.62
152 | R18E | 2.63
153 | R18F | 2.89
154 | R18D | 1.54
155 | R18H | 1.39
156 | R18S | 2.13
157 | R18Q | 2.18
158 | R18C | 2.63
159 | R18Y | 2.75
160 | R18V | 2.27
161 | R18K | 2.52
162 | R18P | 2.21

Row | Variant | protein stability index
163 | R18L | 2.89
164 | R18A | 2.33
165 | R18T | 2.18
166 | R18I | 3.87
167 | R18N | 2.45
168 | R18G | 2.25
169 | R18M | 2.28
170 | R18W | 3.72
171 | L24S | 1.9
172 | L24R | 1.96
173 | L24W | 2.55
174 | L24H | 2.68
175 | L24A | 1.64
176 | L24D | 2.11
177 | L24E | 2.02
178 | L24M | 2.87
179 | L24C | 2.62
180 | L24Q | 1.9
181 | L24P | 1.88
182 | L24F | 1.99
183 | L24V | 2.22
184 | L24G | 1.65
185 | L24K | 2.25
186 | L24T | 1.98
187 | L24Y | 1.65
188 | L24N | 1.97

Row | Variant | protein stability index
189 | T20R | 2.21
190 | T20I | 4.49
191 | T20M | 1.89
192 | T20H | 2.49
193 | T20N | 1.56
194 | T20F | 1.47
195 | T20V | 1.95
196 | T20G | 2.23
197 | T20E | 1.96
198 | T20C | 2.16
199 | T20Y | 2.69
200 | T20L | 2.23
201 | T20A | 1.83
202 | T20S | 3.1
203 | T20D | 1.81
204 | T20Q | 2.08
205 | T20W | 2.46
206 | T20P | 2.02
207 | T20K | 1.59
208 | L19C | 2.44
209 | L19D | 2.28
210 | L19Y | 1.85
211 | L19H | 1.53
212 | L19S | 2.15
213 | L19T | 2.23
214 | L19I | 2.3

Row | Variant | protein stability index
215 | L19E | 2.04
216 | L19F | 2.73
217 | L19K | 2.12
218 | L19V | 3.94
219 | L19N | 2.4
220 | L19G | 2.35
221 | L19M | 1.76
222 | L19P | 2.24
223 | L19W | 2.23
224 | L19A | 1.99
225 | L19Q | 2.07
226 | L19R | 2.08
227 | Q13D | 1.85
228 | Q13M | 4.27
229 | Q13I | 4.15
230 | Q13C | 3.12
231 | Q13H | 3.09
232 | Q13F | 1.69
233 | Q13L | 4.11
234 | Q13S | 2.33
235 | Q13K | 2.41
236 | Q13V | 2.66
237 | Q13W | 2.93
238 | Q13E | 2.2
239 | Q13R | 1.92
240 | Q13G | 1.29

Row | Variant | protein stability index
241 | Q13T | 3.06
242 | Q13A | 2.75
243 | Q13P | 2.57
244 | Q13N | 1.97
245 | I10Y | 3.02
246 | I10Q | 2.31
247 | I10P | 2.2
248 | I10W | 2.39
249 | I10V | 2.68
250 | I10N | 2.05
251 | I10H | 2.34
252 | I10T | 1.72
253 | I10G | 1.4
254 | I10L | 2.47
255 | I10R | 1.49
256 | I10K | 2.58
257 | I10S | 2.09
258 | I10M | 2.49
259 | S22E | 2.1
260 | S22W | 3.5
261 | S22L | 3.32
262 | S22M | 3.55
263 | S22C | 3.38
264 | S22V | 1.67
265 | S22Y | 3.13
266 | S22T | 2.19

Row | Variant | protein stability index
267 | S22N | 2.28
268 | S22F | 3.38
269 | S22Q | 1.91
270 | S22G | 3.17
271 | S22K | 1.68
272 | S22A | 2.17
273 | S22D | 2.4
274 | S22R | 1.53
275 | S22P | 1.82
276 | S22I | 2.24
277 | S22H | 2.71
278 | T11R | 2.52
279 | T11D | 1.61
280 | T11V | 1.99
281 | T11Y | 1.46
282 | T11H | 2.89
283 | T11L | 4.1
284 | T11K | 2.55
285 | T11P | 2.02
286 | T11Q | 2.47
287 | T11N | 1.67
288 | T11G | 2.28
289 | T11S | 2.96
290 | T11C | 2.25
291 | T11W | 3.19
292 | T11M | 3.1

Row | Variant | protein stability index
293 | T11E | 2.06
294 | T11I | 2.59
295 | T11F | 3.29
296 | T11A | 3.71
297 | V14G | 1.45
298 | V14S | 1.74
299 | V14Y | 2.03
300 | V14F | 2.04
301 | V14E | 1.9
302 | V14H | 1.81
303 | V14T | 2.38
304 | V14L | 2.72
305 | V14N | 1.89
306 | V14P | 1.87
307 | V14C | 3.12
308 | V14A | 1.7
309 | V14M | 2.14
310 | V14Q | 1.99
311 | V14D | 1.57
312 | V14K | 2.13
313 | V14I | 2.81
314 | V14W | 3.25
315 | V14R | 1.78
316 | W21T | 1.79
317 | W21D | 3.41
318 | W21R | 2.14

Row | Variant | protein stability index
319 | W21F | 2.36
320 | W21Y | 1.92
321 | W21S | 2.36
322 | W21G | 2.08
323 | W21A | 2.49
324 | W21I | 1.65
325 | W21E | 2.78
326 | W21L | 2.08
327 | W21C | 1.87
328 | W21N | 2.37
329 | W21K | 2.35
330 | W21H | 2
331 | W21Q | 2.21
332 | W21M | 2
333 | W21P | 2.42
334 | W21V | 2.4
